For test [1], the target named is T1, interaction between GAL4 and GAL11P (Saccharomyces cerevisiae, UniProt P19659, N342I).
T1 construct: expressed in transfected cells; host or cells: Saccharomyces cerevisiae, JPY9 derivative (gal4Δ11) with integrated pESBA-17mer-URA3
The test can be described thus: inhibition of GAL4(1-100)-GAL11P interaction and reporter gene (LacZ/URA3) activation in yeast. The test is classed as cell-based. The conditions noted are these: expressed from a high-copy plasmid (2 μm) in yeast, vector pESBA-ADH1. An excerpt: To test the antagonistic action of short protein fragments or peptides in yeast, it was checked whether high production of a peptide could inhibit a defined molecular interaction.
The yeast strain used in these experiments is a derivative of JPY9 (MATα, ura3-52, his3Δ200, leu2Δ1, trp1Δ63, lys2Δ385, gal4Δ11) (A. Barberis et al., Cell, Vol. 81, 359-368) in which the reporter construct pESBA-17mer-URA3 was integrated at the his3 locus. Integration through homologous recombination was piloted by linearisation of the reporter plasmid at the XhoI site prior to yeast transformation. Expression of the URA3 gene was exploited to select for stable integrants on ura-media. […] Upon selection for integration of the reporter construct, this plasmid was readily cured from yeast cells by negative selection for URA3 expression on media containing 5-FOA (ref. Guide to Yeast Genetics and Molecular Biology)
Activation of the divergent LacZ and URA3 reporter genes in the yeast strain described above was induced by co-expression of the DNA-binding domain of GAL4 (amino acid residues 1-100) and GAL11P. GAL4(1-100) was expressed from the plasmid pRJR217 (Y. Wu et al., Quantification of Putative Activator- Target Affinities . . . , EMBO J. 15, 3951-3963, 1996), while GALllP was expressed from pSO28 (A. Barberis et. al., Cell Vol. 81, 359-368). […]
On the technique in general: A reporter such as luciferase makes a cellular process visible.

The target in another test is mutated p53 (p53 R273H) (Homo sapiens, UniProt P04637, R273H). The following applies: synthetic peptide fused to the Drosophila Antennapedia internalisation domain (17 amino acids); cited from earlier work.
A further test concerns the target T2, mutated p53 R273H (Homo sapiens, UniProt P04637, R273H).
T2 construct: expressed in transfected cells; host or cells: Saccharomyces cerevisiae strain YDE4xp53 (derivative of JPY9)
The test can be described thus: transactivation experiments in yeast strain YDE4xp53 (LacZ expression, beta-galactosidase). The test is classed as cell-based. The following applies: peptide expressed from the pESBA-ADH or pESBA-ACT vector in yeast. An excerpt: The agonistic action of the inventive screening system has been shown for the tumor suppressor gene p53. The tumor suppressor gene p53 is mutated in more than 50% of all human cancers which results in the inability to properly bind to the p53 binding site sin target genes responsible to induce cell cycle arrest or apoptosis. The four most commonly found mutations occur in the DNA binding domain of p53 and lead to a single amino acid substitution. […] This opens the possibility to use the peptide libraries according to the present invention to screen for peptides which restore the mutated p53 to wild type activity or to use this system to screen for agonistic actions of peptides in general. […]
Yeast strain YDE4xp53 was transformed with the conventional lithium acetate method (Methods in Yeast Genetics, a Cold Spring Harbor Laboratory Course Manual, Cold Spring Harbor Laboratory Press, 1994) with wild type and mutated p53 expression vectors. Transactivation potential of the different p53 molecules was determined by measurement of the LacZ expression on X-gal plates and liquid beta-galactosidase assays as described (Escher and Schaffner, Gene Activation at a Distance and Telomeric Silencing . . . , Mol. Gen. Genet. (1997) 256; 456-461). […]

T1 sequence (P19659 whole entry N342I, the tested form may be a part): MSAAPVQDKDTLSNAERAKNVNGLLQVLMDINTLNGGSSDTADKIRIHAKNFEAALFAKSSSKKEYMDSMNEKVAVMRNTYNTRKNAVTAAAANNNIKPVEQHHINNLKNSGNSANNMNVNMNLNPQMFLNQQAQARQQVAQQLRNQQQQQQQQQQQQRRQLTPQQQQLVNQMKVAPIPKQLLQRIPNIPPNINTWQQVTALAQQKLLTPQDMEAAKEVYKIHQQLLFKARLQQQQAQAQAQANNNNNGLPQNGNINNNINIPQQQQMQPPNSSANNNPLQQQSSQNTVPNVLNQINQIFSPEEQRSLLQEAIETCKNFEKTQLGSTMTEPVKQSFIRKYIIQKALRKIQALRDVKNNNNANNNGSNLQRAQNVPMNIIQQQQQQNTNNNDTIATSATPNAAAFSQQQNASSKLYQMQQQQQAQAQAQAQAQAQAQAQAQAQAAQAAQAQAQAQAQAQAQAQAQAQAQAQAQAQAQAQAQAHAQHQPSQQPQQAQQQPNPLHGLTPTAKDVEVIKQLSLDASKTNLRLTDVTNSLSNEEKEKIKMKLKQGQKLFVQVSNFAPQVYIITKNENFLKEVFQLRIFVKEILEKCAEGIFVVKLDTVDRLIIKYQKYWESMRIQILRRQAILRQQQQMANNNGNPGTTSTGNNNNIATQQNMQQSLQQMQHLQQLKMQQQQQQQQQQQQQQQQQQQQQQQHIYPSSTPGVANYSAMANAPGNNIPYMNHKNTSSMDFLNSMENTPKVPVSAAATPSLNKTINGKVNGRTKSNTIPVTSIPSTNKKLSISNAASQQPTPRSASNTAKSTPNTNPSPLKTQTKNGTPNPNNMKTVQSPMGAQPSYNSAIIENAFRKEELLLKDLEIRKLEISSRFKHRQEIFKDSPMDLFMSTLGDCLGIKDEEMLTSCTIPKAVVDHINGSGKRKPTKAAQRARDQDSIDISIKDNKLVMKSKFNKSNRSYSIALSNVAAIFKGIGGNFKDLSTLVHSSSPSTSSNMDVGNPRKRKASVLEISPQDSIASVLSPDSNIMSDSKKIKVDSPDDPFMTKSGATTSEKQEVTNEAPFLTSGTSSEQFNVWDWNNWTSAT

Regarding “short protein fragment: peptide comprising the GAL4 residues 58-97, known to contain the GAL11P-interacting sequence, overexpressed from vector pESBA-ADH1”, the “inhibition of GAL4-GAL11P protein-protein interaction and its effect on gene expression” value in test [1] is “could be specifically inhibited”.

In the case of “22mer peptide 46: 22 amino acid long peptide stemming from the carboxy-terminal part of p53 (361-382) (GSRAHSSHLKSKKGQSTSRHKK; UniProt P04637 361-382, looked up, fragment)”, the “restoration of DNA binding activity of the mutated p53” value with mutated p53 (p53 R273H) is “can restore DNA binding activity of the mutated p53”. In addition, the “reactivation of mutated p53 R273H in transactivation experiments” value in the test with mutated p53 R273H is on record as “sufficient to partially reactivate mutated p53 R273H”.

The record behind these values is patent publication US6821728B1, “Screening system” (priority 1998, dated 2004).
